Several values for one entry are separate records, joined by “and”; a condition that tells them apart may be missing. Equal values may be shown once.

Assay [1] addresses Cetuximab (Erbitux, 5 mg/mL). As to the kind of experiment: SEC; SE/UHPLC-UV as a10; sample exposed to accelerated light (250 W/m^2) for 24 h. On the technique in general: In gel filtration, larger molecules generally elute earlier.
Assay [2] concerns the target Cetuximab (Erbitux, 5 mg/mL). As to the kind of experiment: SEC; SE/UHPLC-UV as a10; sample exposed to daylight for 24 h.

Consider Cetuximab (Erbitux, 5 mg/mL) (antibody), for which the stoichiometry N (as a rule, a count of units in the complex or per binding partner) is 3 and 8 and 5 in assay [1]; 3 in assay [2].

The values above are taken from PMC11435379.
